Among the data in article PMC4018492 (Genes & Development, 2014) are binding result and Kd values, retold here.

The target of assay [1] is T1, WDR5_(23–334) (human, UniProt P61964 23-334). As to the kind of experiment: SEC.
In assay [2] the target is 6xHis-WDR5 (residues 23–334) (human, UniProt P61964 23-334). Briefly: pull-down.
Assay [3] concerns the target T1, WDR5_(23–334). Briefly: ITC.

B1: KANSL2_(381–492) (domain or fragment)
chain: DDLEAGPMDLYLSAAELQPTESLPLEFSDDLDVVGDGMQCPPSPLLFDPSLTLEDHLVKEIAEDPVDILGQMQMAGDGCRSQGSRNSEKASAPLSQSGLATANGKPEPTSIS
With B1, the binding result with WDR5_(23–334) [1] is listed as “binds”.

B2: KANSL1_(537–773) (domain or fragment)
chain: KSCGALRPVNGVINTLQPVLADHIPGDSSDAEEQLHKKQRLNLVSSSSDGTCVAARTRPVLSCKKRRLVRPNSIVPLSKKVHRNSTIRPGCDVNPSCALCGSGSINTMPPEIHYEAPLLERLSQLDSCVHPVLAFPDDVPTSLHFQSMLKSQWQNKPFDKIKPPKKLSLKHRAPMPGSLPDSARKDRHKLVSSFLTTAKLSHHQTRPDRTHRQHLDDVGAVPMVERVTAPKAERLLN
In the case of B2, the binding result in assay [2] is reported as “binds”.

Consider DGTCVAARTRPVLSY [KANSL1 WIN motif-containing peptide (585-DGTCVAARTRPVLS-598-Y)], for which binding with WDR5_(23–334) [3] was put at a Kd of 180 nM.
